Values quoted from earlier work, collected in paper PMC12520553.
Like-named read-outs stand apart in the source and are kept apart here.

How the values were obtained:
RAGE (Homo sapiens) [1] = target: RAGE (Homo sapiens) (UniProt Q15109)
sRAGE ECD (Homo sapiens) = sRAGE ECD (Homo sapiens) (UniProt Q15109); experiment: MST
S100B (Homo sapiens) [2] = target: S100B (Homo sapiens) (UniProt P04271); experiment: SPR
Aβ40 Aβ40 (Homo sapiens) [3] = target: Aβ40 Aβ40 (Homo sapiens) (UniProt P05067)
Aβ42 Aβ42 (Homo sapiens) [4] = target: Aβ42 Aβ42 (Homo sapiens) (UniProt P05067)
S100A8 (Homo sapiens) = S100A8 (Homo sapiens) (UniProt P05109); experiment: SPR
Chain of S100A8 (Homo sapiens) (P05109 whole entry): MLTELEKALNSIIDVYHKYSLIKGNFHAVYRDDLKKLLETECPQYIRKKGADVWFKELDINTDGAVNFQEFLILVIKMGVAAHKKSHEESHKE

glucose-BSA (Bos taurus) = glucose-BSA (Bos taurus) (UniProt P02769); experiment: SPR
Chain of glucose-BSA (Bos taurus) (P02769 25-607): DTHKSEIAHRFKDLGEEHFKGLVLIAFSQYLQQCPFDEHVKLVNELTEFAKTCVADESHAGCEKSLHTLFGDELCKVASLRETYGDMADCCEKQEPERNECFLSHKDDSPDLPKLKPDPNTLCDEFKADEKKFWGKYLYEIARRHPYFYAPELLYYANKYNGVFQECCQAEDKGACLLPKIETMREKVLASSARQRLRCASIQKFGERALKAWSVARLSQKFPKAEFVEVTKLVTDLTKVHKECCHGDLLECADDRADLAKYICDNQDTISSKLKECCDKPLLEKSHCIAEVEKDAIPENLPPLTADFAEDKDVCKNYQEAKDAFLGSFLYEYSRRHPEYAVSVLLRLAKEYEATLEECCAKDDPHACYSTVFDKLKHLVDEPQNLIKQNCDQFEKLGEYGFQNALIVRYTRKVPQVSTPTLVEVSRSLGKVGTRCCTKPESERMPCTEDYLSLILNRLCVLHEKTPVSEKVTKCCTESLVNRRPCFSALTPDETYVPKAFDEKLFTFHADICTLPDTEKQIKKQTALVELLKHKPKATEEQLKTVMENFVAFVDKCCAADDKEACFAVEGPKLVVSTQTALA

S100A9 (Homo sapiens) = S100A9 (Homo sapiens) (UniProt P06702); experiment: SPR
Chain of S100A9 (Homo sapiens) (P06702 whole entry): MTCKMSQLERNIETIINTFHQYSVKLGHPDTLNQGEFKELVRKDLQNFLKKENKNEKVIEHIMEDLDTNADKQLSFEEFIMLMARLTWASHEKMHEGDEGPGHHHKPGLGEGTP

[5] = target: fructose-BSA (Bos taurus) (UniProt P02769); experiment: SPR
Chain of fructose-BSA (Bos taurus) (P02769 25-607): as the sequence (P02769 25-607) above

[6] = target: Aβ1-40 Aβ1-40 (Homo sapiens) (UniProt P05067)
S100A13 (Homo sapiens) = S100A13 (Homo sapiens) (UniProt Q99584); experiment: ITC
Chain of S100A13 (Homo sapiens) (Q99584 whole entry): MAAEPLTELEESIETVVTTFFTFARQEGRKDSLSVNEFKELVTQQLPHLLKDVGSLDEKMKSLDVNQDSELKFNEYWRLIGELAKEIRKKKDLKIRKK

Aβ40 Aβ40 (Homo sapiens) [7] = target: Aβ40 Aβ40 (Homo sapiens) (UniProt P05067); experiment: given as Ka
S100A5 (Homo sapiens) = S100A5 (Homo sapiens) (UniProt P33763)
Chain of S100A5 (Homo sapiens) (P33763 whole entry): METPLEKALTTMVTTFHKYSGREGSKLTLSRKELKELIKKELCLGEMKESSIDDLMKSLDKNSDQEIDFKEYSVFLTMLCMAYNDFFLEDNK

S100A11 (Homo sapiens) = S100A11 (Homo sapiens) (UniProt P31949); experiment: NMR
Chain of S100A11 (Homo sapiens) (P31949 2-105): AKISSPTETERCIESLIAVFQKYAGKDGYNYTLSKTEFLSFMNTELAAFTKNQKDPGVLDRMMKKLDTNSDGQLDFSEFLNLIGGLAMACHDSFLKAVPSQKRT

Aβ40 Aβ40 (Homo sapiens) [8] = target: Aβ40 Aβ40 (Homo sapiens) (UniProt P05067); remark: listed apart in the source
HMGB1 (Homo sapiens) = HMGB1 (Homo sapiens) (UniProt P09429); experiment: SPR
Chain of HMGB1 (Homo sapiens) (P09429 whole entry): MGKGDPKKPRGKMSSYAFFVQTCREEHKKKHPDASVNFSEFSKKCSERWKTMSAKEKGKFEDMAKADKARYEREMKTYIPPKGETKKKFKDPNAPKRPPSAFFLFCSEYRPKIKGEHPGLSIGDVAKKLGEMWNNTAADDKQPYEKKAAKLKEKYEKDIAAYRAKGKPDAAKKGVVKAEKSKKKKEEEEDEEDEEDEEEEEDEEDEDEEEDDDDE

C1q (Homo sapiens) = C1q (Homo sapiens) (UniProt P02745); experiment: SPR
Chain of C1q (Homo sapiens) (P02745 23-245, chain 1 of 3): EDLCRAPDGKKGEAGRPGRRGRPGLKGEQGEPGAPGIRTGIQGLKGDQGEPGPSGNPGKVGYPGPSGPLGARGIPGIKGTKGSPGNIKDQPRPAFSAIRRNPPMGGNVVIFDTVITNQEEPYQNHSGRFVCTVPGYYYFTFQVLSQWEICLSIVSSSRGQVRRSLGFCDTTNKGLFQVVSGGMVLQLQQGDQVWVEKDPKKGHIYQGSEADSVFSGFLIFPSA
Chain of C1q (Homo sapiens) (P02746 28-253, chain 2 of 3, further chain): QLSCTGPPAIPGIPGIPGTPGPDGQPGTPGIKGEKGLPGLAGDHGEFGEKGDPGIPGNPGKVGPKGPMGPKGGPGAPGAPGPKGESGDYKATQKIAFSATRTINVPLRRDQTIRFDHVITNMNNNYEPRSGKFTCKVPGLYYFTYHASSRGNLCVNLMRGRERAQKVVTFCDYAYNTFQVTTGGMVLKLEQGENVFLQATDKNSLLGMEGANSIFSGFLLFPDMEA
Chain of C1q (Homo sapiens) (P02747 29-245, chain 3 of 3, further chain): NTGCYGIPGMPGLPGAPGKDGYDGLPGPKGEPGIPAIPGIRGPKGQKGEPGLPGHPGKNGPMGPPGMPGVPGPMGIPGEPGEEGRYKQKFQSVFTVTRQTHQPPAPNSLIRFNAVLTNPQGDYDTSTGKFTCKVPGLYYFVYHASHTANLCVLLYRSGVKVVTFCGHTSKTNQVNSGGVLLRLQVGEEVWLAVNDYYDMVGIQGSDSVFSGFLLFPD

Aβ42 Aβ42 (Homo sapiens) [9] = target: Aβ42 Aβ42 (Homo sapiens) (UniProt P05067); experiment: MST
Aβ Aβ (Homo sapiens) = Aβ Aβ (Homo sapiens) (UniProt P05067)
S100P (Homo sapiens) = S100P (Homo sapiens) (UniProt P25815); experiment: ITC
Chain of S100P (Homo sapiens) (P25815 whole entry): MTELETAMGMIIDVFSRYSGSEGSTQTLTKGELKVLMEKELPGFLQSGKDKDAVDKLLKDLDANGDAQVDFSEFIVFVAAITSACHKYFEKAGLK

S100A6m (Homo sapiens) = S100A6m (Homo sapiens) (UniProt P06703); experiment: ITC
S100B (Homo sapiens) [10] = target: S100B (Homo sapiens) (UniProt P04271); experiment: ITC
[11] = target: RAGE V domain (Homo sapiens) (UniProt Q15109)
RAGE (Homo sapiens) [12] = target: RAGE (Homo sapiens) (UniProt Q15109); experiment: SPR
[13] = target: RAGE 23-132 (Homo sapiens) (UniProt Q15109)
[14] = target: S100B (dimer) (Homo sapiens) (UniProt P04271); experiment: SPR
Chain of S100B (dimer) (Homo sapiens) (P04271 2-92): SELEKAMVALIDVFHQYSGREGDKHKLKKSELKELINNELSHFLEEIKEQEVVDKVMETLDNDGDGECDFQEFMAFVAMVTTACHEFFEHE

[15] = target: Aβ17-42 Aβ17-42 (Homo sapiens) (UniProt P05067); experiment: MST
[16] = target: iso-Aβ42 Aβ42 (Homo sapiens) (UniProt P05067); experiment: MST
[17] = target: pS8-Aβ42 Aβ42 (Homo sapiens) (UniProt P05067); experiment: MST

Chain of S100B (Homo sapiens) (P04271 2-92): as above
Chain of fructose-BSA (AGE) (P02769 25-607): as the sequence (P02769 25-607) above
Chain of glucose-BSA (AGE) (P02769 25-607): as above
Chain of S100A5 (P33763 whole entry): as the sequence (P33763 whole entry) above
Chain of S100A8 (P05109 whole entry): as the sequence (P05109 whole entry) above
Chain of S100B (P04271 2-92): as the sequence (P04271 2-92) above
Chain of S100A9 (P06702 whole entry): as the sequence (P06702 whole entry) above

## Amyloid-beta 1-40 Abeta 1-40 (from UniProt P05067)
RAGE (Homo sapiens) [1]
  Kd: 57 nM

## Amyloid-beta 17-42 Abeta 17-42 (from UniProt P05067)
sRAGE ECD (Homo sapiens)
  Kd: 10 µM

## RAGE 23-132 (from UniProt Q15109)
S100B (Homo sapiens) [2]
  Kd: 500 nM

## RAGE (from UniProt Q15109)
Aβ40 Aβ40 (Homo sapiens) [3]
  Kd: 75 nM
Aβ42 Aβ42 (Homo sapiens) [4]
  Kd: 92 nM
S100A8 (Homo sapiens)
  Kd: 70 nM
glucose-BSA (Bos taurus)
  Kd: 13.9 µM
S100A9 (Homo sapiens)
  Kd: 3.21 nM
[5]
  Kd: 19.5 µM
[6]
  Kd: 57 nM

## RAGE C2 (from UniProt Q15109)
S100A13 (Homo sapiens)
  Kd: 1300 nM

## RAGE V domain (from UniProt Q15109)
Aβ40 Aβ40 (Homo sapiens) [7]
  Kd: 625 nM
S100A5 (Homo sapiens)
  Kd: 5.9 µM
S100A11 (Homo sapiens)
  Kd: 2650 nM
Aβ40 Aβ40 (Homo sapiens) [8]
  Kd: 600 nM
HMGB1 (Homo sapiens)
  Kd: 97.7 nM
C1q (Homo sapiens)
  Kd: 5.6 µM
Aβ42 Aβ42 (Homo sapiens) [9]
  Kd: 1000 nM
Aβ Aβ (Homo sapiens)
  Kd: 52.2 nM
S100P (Homo sapiens)
  Kd: 6.2 µM
S100A6m (Homo sapiens)
  Kd: 3000 nM

## RAGE VC1 (from UniProt Q15109)
S100B (Homo sapiens) [10]
  Kd: 3.19 µM

## S100A5 (from UniProt P33763)
[11]
  Kd: 5.9 µM

## S100A8 (from UniProt P05109)
RAGE (Homo sapiens) [12]
  Kd: 0.07 µM

## S100A9 (from UniProt P06702)
RAGE (Homo sapiens) [12]
  Kd: 0.00321 µM

## S100B (from UniProt P04271)
[13]
  Kd: 500 nM

## fructose-BSA (AGE) (from UniProt P02769)
RAGE (Homo sapiens) [12]
  Kd: 19.5 µM

## glucose-BSA (AGE) (from UniProt P02769)
RAGE (Homo sapiens) [12]
  Kd: 13.9 µM

## sRAGE ECD (from UniProt Q15109)
[14]
  Kd: 8.3 µM
[15]
  Kd: 10 µM
[16]
  Kd: 23 µM
[17]
  Kd: 7 µM
